Patent publication US20220064254A1 (Janssen / Centocor, published 2022)

Experiments:
[1] = target: T1, biotinylated recombinant hK2 protein (human, UniProt P20151 25-261, biotin label (EZ-Link Sulfo-NHS-LC-Biotin)); test: flow cytometry; JNL (Jurkat NFAT-luciferase) cells transduced with the CAR, stained with biotinylated hK2 then streptavidin-PE; UTD control gate 0.021
T1 construct: In-house biotin-labelled recombinant hK2 used as the flow cytometry reagent; also called biotinylated hK2; Biotin-Hk2 protein
T1 sequence (P20151 25-261): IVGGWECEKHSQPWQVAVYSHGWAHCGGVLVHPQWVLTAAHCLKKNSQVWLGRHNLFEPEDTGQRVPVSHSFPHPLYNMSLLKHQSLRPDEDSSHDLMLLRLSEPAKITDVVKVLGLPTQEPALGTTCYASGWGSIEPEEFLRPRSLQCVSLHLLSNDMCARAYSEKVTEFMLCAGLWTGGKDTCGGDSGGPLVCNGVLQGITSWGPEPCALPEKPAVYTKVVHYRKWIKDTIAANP
Method: Lentiviral transduction was performed as follows. JNL cells were harvested and resuspended to 1E6/ml. 500 μl of JNL cells and lentiviral virus were added at a MOI of 3, and mixed by pipetting up and down. The mixture was incubate in a 37° C. incubator for 24 hours. 500 μl JNL media was added to each well, with culturing continued in a 37° C. incubator. The cells were transferred to a T25 flask on day 4. At days 5-6, transduction validation was performed. […] The JNL cells were maintained at 5×10⁵/ml until enough cells were obtained to either freeze down or use in the assay.

[2] = target: T1, biotinylated recombinant hK2 protein; test: flow cytometry; primary human T cells lentivirally transduced with the CAR (MOI 3), day 14, stained with biotinylated hK2 (1 µg/ml) then streptavidin-PE; UTD control gate 0.086
Method: The cells were resuspended in 100 μl of Biotin labeled hK2 (1 μg/ml diluted in FACS buffer) and incubated on ice for 30 minutes. 100 μl of FACS buffer was added, and spun washed at 4° C. The spin wash was repeated after adding another 200 μl FACS buffer. Staining with 100 μl of master solution containing secondary antibody SA-PE (1:250), live dead fixable stain (1:500), αCD3, αCD4 and αCD8 antibodies was performed on ice for 30 minutes. 100 μl FACS buffer was added and spun wash at 4° C., discarded and resuspended in 200 μl FACS buffer before spin washing at 4° C. The samples were resuspended in 100 μl FACS Buffer before analyzing by flow cytometry.

[3] = target: T2, soluble human Kallikrein-2 (hK2) (human, UniProt P20151 25-261); test: SPR; antibody captured on anti-Fc sensor chip, soluble hK2 injected; 1:1 Langmuir fit, KD = koff/kon
T2 construct: The construct used in SPR, ELISA and MSD screening is not defined; the stated signal peptide (1-18) is left out, and the pro-peptide (19-24) may or may not have been present; also called KLK2; soluble hK2
T2 sequence (P20151 25-261): as above
Method: Affinity of selected hK2 antibodies for soluble hK2 was measured by surface plasmon resonance (SPR). […] Antibodies were captured on a sensor chip coated with an anti-Fc antibody followed by injection of soluble hK2 at various concentrations and specified association and dissociation times. Post dissociation, the surface was regenerated with an appropriate solution to prepare for the next interaction. Kinetic information (on-rate and off-rate constants) were extracted by fitting sensorgrams to the 1:1 Langmuir model. Binding affinity (KD) are reported as the ratio of rate constants (koff/kₒₙ).

| Binder | percent of cells in the PE-positive gate (hK2 CAR) [1] | percent of CD3+ T cells in the PE-positive gate (hK2 CAR) [2] | Kd [3] |
| --- | --- | --- | --- |
| CAR9 (LH_LCB7_HCG5_20AA) (other, also called construct 9; pDR000083444) DIVLTQSPDSLAVSLGERATINCKASESVEYFGTSLMHWYQQKPGQPPKLLIYAASNRESGVPDRFSGSGSGTDFTLTISSVQAEDVAVYYCQQTRKVPYTFGQGTKLEIKGGSEGKSSGSGSESKSTGGSQVQLQESGPGLVKPSDTLSLTCAVSGNSITSDYAWNWIRQFPGKGLEWMGYISYSGSTTYNPSLKSRVTISRDTSKNQFSLKLSSVTPVDTAVYYCATGYYYGSGFWGQGTLVTVSSTSTPAPRPPTPAPTIASQPLSLRPEACRPAAGGAVHTRGLDFACDIYIWAPLAGTCGVLLLSLVITLYCKRGRKKLLYIFKQPFMRPVQTTQEEDGCSCRFPEEEEGGCELRVKFSRSADAPAYKQGQNQLYNELNLGRREEYDVLDKRRGRDPEMGGKPRRKNPQEGLYNELQKDKMAEAYSEIGMKGERRRGKGHDGLYQGLSTATKDTYDALHMQALPPR | 68% | 30.6% |  |
| CAR7 (LH_LCHumanized_HCG5_20AA) (other, also called construct 7; pDR000083441) DIVLTQSPDSLAVSLGERATINCKASESVEYFGTSLMHWYQQKPGQPPKLLIYAASNRESGVPDRFSGSGSGTDFTLTISSLQAEDVAVYYCQQTRKVPYTFGQGTKLEIKGGSEGKSSGSGSESKSTGGSQVQLQESGPGLVKPSDTLSLTCAVSGNSITSDYAWNWIRQFPGKGLEWMGYISYSGSTTYNPSLKSRVTISRDTSKNQFSLKLSSVTPVDTAVYYCATGYYYGSGFWGQGTLVTVSSTSTPAPRPPTPAPTIASQPLSLRPEACRPAAGGAVHTRGLDFACDIYIWAPLAGTCGVLLLSLVITLYCKRGRKKLLYIFKQPFMRPVQTTQEEDGCSCRFPEEEEGGCELRVKFSRSADAPAYKQGQNQLYNELNLGRREEYDVLDKRRGRDPEMGGKPRRKNPQEGLYNELQKDKMAEAYSEIGMKGERRRGKGHDGLYQGLSTATKDTYDALHMQALPPR | 71.9% | 35% |  |
| CAR5 (LH_LCD6_HCG5_20AA) (other, also called construct 5; pDR000083438) DIVLTQSPDSLAVSLGERATINCKASESVEYFGTSLMHWYQQKPGQPPKLLIYAASNRESGVPDRFSGSGSGTDFTLTIQSVQAEDVSVYFCQQTRKVPYTFGQGTKLEIKGGSEGKSSGSGSESKSTGGSQVQLQESGPGLVKPSDTLSLTCAVSGNSITSDYAWNWIRQFPGKGLEWMGYISYSGSTTYNPSLKSRVTISRDTSKNQFSLKLSSVTPVDTAVYYCATGYYYGSGFWGQGTLVTVSSTSTPAPRPPTPAPTIASQPLSLRPEACRPAAGGAVHTRGLDFACDIYIWAPLAGTCGVLLLSLVITLYCKRGRKKLLYIFKQPFMRPVQTTQEEDGCSCRFPEEEEGGCELRVKFSRSADAPAYKQGQNQLYNELNLGRREEYDVLDKRRGRDPEMGGKPRRKNPQEGLYNELQKDKMAEAYSEIGMKGERRRGKGHDGLYQGLSTATKDTYDALHMQALPPR | 66.4% | 17.9% |  |
| CAR8 (LH_LCB7_HCF3_20AA) (other, also called construct 8; pDR000083443) DIVLTQSPDSLAVSLGERATINCKASESVEYFGTSLMHWYQQKPGQPPKLLIYAASNRESGVPDRFSGSGSGTDFTLTISSVQAEDVAVYYCQQTRKVPYTFGQGTKLEIKGGSEGKSSGSGSESKSTGGSQVQLQESGPGLVKPSDTLSLTCAVSGNSITSDYAWNWIRQFPGKGLEWIGYISYSGSTTYNPSLKSRVTISRDTSKNQFSLKLSSVTPVDTAVYYCATGYYYGSGFWGQGTLVTVSSTSTPAPRPPTPAPTIASQPLSLRPEACRPAAGGAVHTRGLDFACDIYIWAPLAGTCGVLLLSLVITLYCKRGRKKLLYIFKQPFMRPVQTTQEEDGCSCRFPEEEEGGCELRVKFSRSADAPAYKQGQNQLYNELNLGRREEYDVLDKRRGRDPEMGGKPRRKNPQEGLYNELQKDKMAEAYSEIGMKGERRRGKGHDGLYQGLSTATKDTYDALHMQALPPR | 66.3% | 21.5% |  |
| CAR10 (LH_LCD6_HCF3_20AA) (other, also called construct 10; pDR000083446) DIVLTQSPDSLAVSLGERATINCKASESVEYFGTSLMHWYQQKPGQPPKLLIYAASNRESGVPDRFSGSGSGTDFTLTIQSVQAEDVSVYFCQQTRKVPYTFGQGTKLEIKGGSEGKSSGSGSESKSTGGSQVQLQESGPGLVKPSDTLSLTCAVSGNSITSDYAWNWIRQFPGKGLEWIGYISYSGSTTYNPSLKSRVTISRDTSKNQFSLKLSSVTPVDTAVYYCATGYYYGSGFWGQGTLVTVSSTSTPAPRPPTPAPTIASQPLSLRPEACRPAAGGAVHTRGLDFACDIYIWAPLAGTCGVLLLSLVITLYCKRGRKKLLYIFKQPFMRPVQTTQEEDGCSCRFPEEEEGGCELRVKFSRSADAPAYKQGQNQLYNELNLGRREEYDVLDKRRGRDPEMGGKPRRKNPQEGLYNELQKDKMAEAYSEIGMKGERRRGKGHDGLYQGLSTATKDTYDALHMQALPPR | 60% | 20.1% |  |
| CAR6 (LH_LCHumanized_HCF3_20AA) (other, also called construct 6; pDR000083440) DIVLTQSPDSLAVSLGERATINCKASESVEYFGTSLMHWYQQKPGQPPKLLIYAASNRESGVPDRFSGSGSGTDFTLTISSLQAEDVAVYYCQQTRKVPYTFGQGTKLEIKGGSEGKSSGSGSESKSTGGSQVQLQESGPGLVKPSDTLSLTCAVSGNSITSDYAWNWIRQFPGKGLEWIGYISYSGSTTYNPSLKSRVTISRDTSKNQFSLKLSSVTPVDTAVYYCATGYYYGSGFWGQGTLVTVSSTSTPAPRPPTPAPTIASQPLSLRPEACRPAAGGAVHTRGLDFACDIYIWAPLAGTCGVLLLSLVITLYCKRGRKKLLYIFKQPFMRPVQTTQEEDGCSCRFPEEEEGGCELRVKFSRSADAPAYKQGQNQLYNELNLGRREEYDVLDKRRGRDPEMGGKPRRKNPQEGLYNELQKDKMAEAYSEIGMKGERRRGKGHDGLYQGLSTATKDTYDALHMQALPPR | 70.3% | 27.8% |  |
| CAR4 (HL_HCG5_LCB7_20AA) (other, also called construct 4; pDR000083437) QVQLQESGPGLVKPSDTLSLTCAVSGNSITSDYAWNWIRQFPGKGLEWMGYISYSGSTTYNPSLKSRVTISRDTSKNQFSLKLSSVTPVDTAVYYCATGYYYGSGFWGQGTLVTVSSGGSEGKSSGSGSESKSTGGSDIVLTQSPDSLAVSLGERATINCKASESVEYFGTSLMHWYQQKPGQPPKLLIYAASNRESGVPDRFSGSGSGTDFTLTISSVQAEDVAVYYCQQTRKVPYTFGQGTKLEIKTSTPAPRPPTPAPTIASQPLSLRPEACRPAAGGAVHTRGLDFACDIYIWAPLAGTCGVLLLSLVITLYCKRGRKKLLYIFKQPFMRPVQTTQEEDGCSCRFPEEEEGGCELRVKFSRSADAPAYKQGQNQLYNELNLGRREEYDVLDKRRGRDPEMGGKPRRKNPQEGLYNELQKDKMAEAYSEIGMKGERRRGKGHDGLYQGLSTATKDTYDALHMQALPPR | 64.3% | 42.7% |  |
| CAR1 (HL_HCG5_LCD6_20AA) (other, also called construct 1; pDR000083431) QVQLQESGPGLVKPSDTLSLTCAVSGNSITSDYAWNWIRQFPGKGLEWMGYISYSGSTTYNPSLKSRVTISRDTSKNQFSLKLSSVTPVDTAVYYCATGYYYGSGFWGQGTLVTVSSGGSEGKSSGSGSESKSTGGSDIVLTQSPDSLAVSLGERATINCKASESVEYFGTSLMHWYQQKPGQPPKLLIYAASNRESGVPDRFSGSGSGTDFTLTIQSVQAEDVSVYFCQQTRKVPYTFGQGTKLEIKTSTPAPRPPTPAPTIASQPLSLRPEACRPAAGGAVHTRGLDFACDIYIWAPLAGTCGVLLLSLVITLYCKRGRKKLLYIFKQPFMRPVQTTQEEDGCSCRFPEEEEGGCELRVKFSRSADAPAYKQGQNQLYNELNLGRREEYDVLDKRRGRDPEMGGKPRRKNPQEGLYNELQKDKMAEAYSEIGMKGERRRGKGHDGLYQGLSTATKDTYDALHMQALPPR | 61.9% | 20% |  |
| CAR2 (HL_HCG5_LCHumanized_20AA) (other, also called construct 2) QVQLQESGPGLVKPSDTLSLTCAVSGNSITSDYAWNWIRQFPGKGLEWMGYISYSGSTTYNPSLKSRVTISRDTSKNQFSLKLSSVTPVDTAVYYCATGYYYGSGFWGQGTLVTVSSGGSEGKSSGSGSESKSTGGSDIVLTQSPDSLAVSLGERATINCKASESVEYFGTSLMHWYQQKPGQPPKLLIYAASNRESGVPDRFSGSGSGTDFTLTISSLQAEDVAVYYCQQTRKVPYTFGQGTKLEIKTSTPAPRPPTPAPTIASQPLSLRPEACRPAAGGAVHTRGLDFACDIYIWAPLAGTCGVLLLSLVITLYCKRGRKKLLYIFKQPFMRPVQTTQEEDGCSCRFPEEEEGGCELRVKFSRSADAPAYKQGQNQLYNELNLGRREEYDVLDKRRGRDPEMGGKPRRKNPQEGLYNELQKDKMAEAYSEIGMKGERRRGKGHDGLYQGLSTATKDTYDALHMQALPPR | 65.4% | 23.6% |  |
| CAR3 (HL_HCF3_LCB7_20AA) (other, also called construct 3; pDR000083436) QVQLQESGPGLVKPSDTLSLTCAVSGNSITSDYAWNWIRQFPGKGLEWIGYISYSGSTTYNPSLKSRVTISRDTSKNQFSLKLSSVTPVDTAVYYCATGYYYGSGFWGQGTLVTVSSGGSEGKSSGSGSESKSTGGSDIVLTQSPDSLAVSLGERATINCKASESVEYFGTSLMHWYQQKPGQPPKLLIYAASNRESGVPDRFSGSGSGTDFTLTISSVQAEDVAVYYCQQTRKVPYTFGQGTKLEIKTSTPAPRPPTPAPTIASQPLSLRPEACRPAAGGAVHTRGLDFACDIYIWAPLAGTCGVLLLSLVITLYCKRGRKKLLYIFKQPFMRPVQTTQEEDGCSCRFPEEEEGGCELRVKFSRSADAPAYKQGQNQLYNELNLGRREEYDVLDKRRGRDPEMGGKPRRKNPQEGLYNELQKDKMAEAYSEIGMKGERRRGKGHDGLYQGLSTATKDTYDALHMQALPPR | 64.3% | 29.4% |  |
| KL2B413 (scFv) (scFv, V domains shown) VH: EVQLVESGGGLVQPGGSLRLSCAASGFTFSSYWMTWVRQAPGKGLEWVANIKQDGSERYYVDSVKGRFTISRDNAKNSLYLQMNSLRAEDTAVYYCARDQNYDILTGHYGMDVWGQGTTVTVSS VL: EIVLTQSPSFLSASVGDRVTITCRASQGISSYLSWYQQKPGKAPKLLIYATSTLQSGVPSRFSGSGSGTEFTLTISSLQPEDFATYYCQQLNSYPRTFGQGTKVEIK |  |  | 34.3 nM |
